Data reported in article PMC11544220 (Scientific Reports, 2024).

Columns and labels:
native MS = target: the molecule itself; experiment: native MS
[1] = target: Stl^NT-Avi, biotinylated Stl 1-159 for the BLI sensor (Staphylococcus aureus, UniProt Q9F0J8 1-159, biotin on the Avi-tag); experiment: BLI
[2] = target: Stl-Avi, biotinylated full-length Stl for the BLI sensor (Staphylococcus aureus, UniProt Q9F0J8 1-267, biotin on the Avi-tag); experiment: BLI

B1: Mycobacterium tuberculosis dUTPase, wild type (MtDUT^WT) (enzyme)
chain: MSTTLAIVRLDPGLPLPSRAHDGDAGVDLYSAEDVELAPGRRALVRTGVAVAVPFGMVGLVHPRSGLATRVGLSIVNSPGTIDAGYRGEIKVALINLDPAAPIVVHRGDRIAQLLVQRVELVELVEVSSFDEAGLASTSRGDGGHGSSGGHASL
In the case of B1, the “stoichiometry N” value (native MS) is reported as 3 subunits in the oligomer, the Kd [1] is reported as 0.19 ± 0.001 nM and the koff [1] is reported as 0.000103 ± 0.04 s⁻¹. The kon [1] was 542000 ± 0.01 M⁻¹ s⁻¹, the Kd [2] was less than 0.001 nM and the koff [2] was less than 1e-07 s⁻¹. For the same binder, the kon [2] was 270000 ± 0.01 M⁻¹ s⁻¹.
